Test results: a protein production outcome set (Wang et al. 2014)

Assay: label from the status in PepcDB records
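Also: failed if final PepcDB status was selected cloned or expressed and not failed if soluble or beyond.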

Row | Sequence | protein production
1 | AIAEEDEFIGEKTFQRYCAEFIKHSQQIGDSWEWRPSKDCSDGYMCKIHFQIKNGSVMSHLGASTHGQTCLPMEEAFELPLDDCEVIETAAASEVIKYEYHVLYSCSYQVPVLYFRASFLDGRPLTLKDIWEGVHECYKMRLLQGPWDTITQQEHPILGQPFFVLHPCKTNEFMTPVLKNSQKINKNVNYITSWLSIVGPVVGLNLPLSYAKATSQDERNVP | failed
2 | MRVEVFPVEGLPLIKEGDDLAELISSRVRFEDGDVLVVCSTVISKAEGRIRRLEEFNPSERAKEIAARIGKPAEFVQAVLEESEEVLLDFPFLLVKAKFGNVCVNAGIDASNVEEGSLLLPPLDPDGSAEKLRRRILELTGKRVGVIITDTNGRCFRRGVVGFAIGISGVKAMKDWIGRKDLYGRELEVTVECVADEIAAFANLLMGEGGDGIPAVVVRGLNVAGEGSMEEIYRSEEEDVIRRCLKRCL | not failed
3 | MNKFIKYFLILLSFGLLVVPIIFATQLYQSSESAFESSQNTKDSQRKSTLRDSKVDPEKQPISILFLGIDDNEGREKNGQSVEHSRSDAMILSTFNQKKHQIRMLSIPRDTISYIPKVGYYDKITHAHAYGGPLAAMDSVEATMNVPVDYYVRINMKAFVEAVDELGGIYYDVPYNLNEPNSDDTGRIKIKKGYQKLNGDQALAVARTRHHDSDLKRGQRQMELIKILFQKAQNLKSIDKLDNVISIVGKNAKHNLTQKEIKSLAKMYLGGSTEIKTSQLKGKDDYLNDIYYYHPSVKSIMEYSNLLRNDLDLSKITNKNDFLDQRVIKRYGSLVPLTELDEDLLRKNQKESTDSQKESDSSSQNNDEEDQTNEQTDQNSLNGNEQYPNQQDNNQTNGENGMINNDNYPYAQ | failed
4 | MKQPNYYQDVKQFHQTFHHPGADQPTAIPLDRGVKRATWTAEEAVVEFLHQSSQNETEFLAAIETFKAGLDQAVKKSLKETYPVTEVERLVGQGDALTDALYFIMGSFVEAGLEPGPLFEIVQQANMAKLGPDGQPIFRESDQKVMKPDGWLPPEPQLEAEVVRQMKEKA | not failed
5 | MGHHHHHHSHSEVAIKIDFDFAPGSFDDQYQGCSKQVMEKLTQGDYFTKDIEAQKNYFRMWQKAHLAWLNQGKVLPQNMTTTHAVAILFYTLNSNVHSDFTRAMASVARTPQQYERSFHFKYLHYYLTSAIQLLRKDSIMENGTLCYEVHYRTKDVHFNAYTGATIRFGQFLSTSLLKEEAQEFGNQTLFTIFTCLGAPVQYFSLKKEVLIPPYELFKVINMSYHPRGNWLQLRSTGNLSTYNCQLLKASSKKC | failed
6 | MIKLSSITAHILDIWHRRNSRSYIAHLRSLGIRIGDGCIFRDPLTTRIDVSRPALVSIGSNVDMNTYFQILTHDWASFVFRNKYHDFVNSSGRVEIGSNIYIGTNVIVLRGVTIGDNCVIGAGSVVTHDIPANSVAVGAPCRVVCSLDEYYQKRKVKGLQEAVEHVKAFQKNFGRDPLPHELYEEFIYFVDASNVEEYERQGVPVRSQLSIAYGDWLSTHKAKFSSYDDFIQYVNQKMNETAES | failed
7 | LRTIVELMENNLEETLSLDQLAAYSGRSRRQIDRLFQAQLGTSPRRYYMELRITKSRRLLQYSDLSVMEVAVACGFVSVSHFSKCYAAYFGYPPSREQRLGE | failed
8 | MSIVIVGGNERMVCQYEDICKGYGCKAKVFAKEKGAMKKKIGAPDLMILFTGTVSHKMVNCAVEEAKKKSIPVCRCHTSSASALESILREYCALEHHHHHH | failed
9 | MMLGPEGGEGYVVKLRGLPWSCSIEDVQNFLSDCTIHDGVAGVHFIYTREGRQSGEAFVELESEDDVKLALKKDRESMGHRYIEVFKSHRTEMDWVLKHSGPNSA | not failed
10 | MVFSGPASPGLTLAPLRRGGIDPCYRVDAAGAIWRTSLMPSGPVTARITRAATDAADCQAWGEGADEFIDRLPALLGVDDDASDFAPAEPTIAKARRQVPHLRLGRTGRMLEALIPAIIEQRVYGLDAWRAWRALVTKFGTPAPGPAPDGMRVVPSAEVWRRIPSWEFHRANVDPGRARTIVMCAQRADSLERLTHERAAVTLRSLPGVGEWTAAETMQRVFGDADALSAGDYHLATLVGQALTGEPVDDAGMVELLEPMRPHRHRAVRLLEASGMFVYRRRGARQAIPKLRTLLEHHHHHH | failed
11 | MERKLGISLYPEHSTKEKDMAYISAAARHGFSRIFTCLLSVNRPKEEIVAEFKEIINHAKDNNMEVILDVAPAVFDQLGISYSDLSFFAELGADGIRLDVGFDGLTEAKMTNNPYGLKIELNVSNDIAYLENILSHQANKSALIGCHNFYPQKFTGLPYDYFIRCSERFKKHGIRSAAFITSHVANIGPWDINDGLCTLEEHRNLPIEVQAKHLWATGLIDDVIIGNAYASEEELEKLGNLNRYMLQLKVHFVDEATEVEKRATLQELHVRRGDITEYMVRSTEVRKKYKDYDFPVRESVLQERGQVVIGNNSFGKYKGELQIILKEMPIDERKNIVGTIAEEELFLLDYVGAWTQFTCVE | not failed
12 | MALDQSLVGRSYPPTAPYEVGREKIREFAEAVGDANPAYTDAEAAKALGHPDVIAPPTFVFSITFKAAGQVIEDPQLGLDYSRVVHGDQKFSYARPVRAGDRLTVTSTIEAIKSMAGNDILDIRGEVHDEAGEHVVTAWTKLVARAAEEALEHHHHHH | not failed
13 | MLASIISILRVFVLLFNTPLFIFAFLPVGFLGYFILQAYAKNPLFPKLWLVLASLFFYAFWNVKYLPLLVGSIVFNYFVALKIHQTQPNAYKRLWLILGLIANVSLLGFFKYTDFFLTNFNLIWKSHFETLHLILPLAISFFTLQQIAYLMDTYKQNQIMQPKMRERVSENAPILLNPPTSFFSLSHFLDYALFVSFFPQLIAGPIVHHSEMMPQFKDKNNQYLNYRNIALGLFIFSIGLFKKVVIADNTAHFADFGFDKATSLSFIQAWMTSLSYSFQLYFDFSGYCDMAIGIGLFFNIKLPINFNSPYKALNIQDFWRRWHITLSRFLKEYLYIPLGGNRVKELIVYRNLILVFLIGGFWHGAGWTFIIWGLLHGIALSVHRAYSHATRKFHFTMPKILAWLITFNFINLAWVFFRAKNLESALKVLKGMVGLNGVSLCHLSKEASEFLNRVNDNMIMHTIMYASPTFKMCVLMIIISFCLKNSSHLYQSNQMDWIKTTSACLLLSIGFLFIFASSQSVFLYFNF | failed
14 | MCPAVVPDDPHALTAPSPWVVRWAAPLPAGARVLDVACGSGRHVRWLAARGLRVTGIDRDADALSGLSEAADTLIADIEDGLWPLPAEAVFDAVVVTNYLYRPLWPRLLACVAPGGRLIYETFAVGNETVGKPSNPAFLLAPGELLEAVRGQLRVIGYEDGFIAAPREAYVQRLCAVRESAGAQARRYAL | failed
15 | MKINWAENLRQNVHQLAESLGNLFVESFHYLALFAIGAVTAWAAVMEFLQMIEVGHIKIDDILLLFIYLELGAMVGIYFKTNHMPVRFLIYVAITALTRLLISNVSHHNPPDLGIIYLCGGILLLAFAILVVRYASSQFPSVKIEHPQRKIGAGSGEHPEVEKGEL | failed
16 | MEAKQAAGALLTVVGVLLILYAIYSGFVNETIGSTEKFSADAAAMIVGWFAVLIGPALLFGETPAAVRKAAGR | failed
17 | MELLKLNRSVQGTGPGPGASLCRPGAPLLNSSSVGNLSCEPPRIRGAGTRELELAIRITLYAVIFLMSVGGNMLIIVVLGLSRRLRTVTNAFLLSLAVSDLLLAVACMPFTLLPNLMGTFIFGTVICKAVSYLMGVSVSVSTLSLVAIALERYSAICRPLQARVWQTRSHAARVIVATWLLSGLLMVPYPVYTVVQPVGPRVLQCVHRWPSARVRQTWSVLLLLLLFFIPGVVMAVAYGLISRELYLGLRFDGDSDSDSQSRVRNQGGLPGGAGPREQNLGEADVWRATGPAGVGGTEMKVRVRRKLEMELSWERRSGGDWAGDWGDSPFSLTAHPLCSGAVHQNGRCRPETGAVGEDSDGCYVQLPRSRPALELTALTAPGPGSGSRPTQAKLLAKKRVVRMLLVIVVLFFLCWLPVYSANTWRAFDGPGAHRALSGAPISFIHLLSYASACVNPLVYCFMHRRFRQACLETCARCCPRPPRARPRALPDEDPPTPSIASLSRLSYTTISTLGPG | failed
18 | MVNFAVWLDGVILKIDLTDSLYKIYKGDQISLPITYEVNDDWIKVYDRIREANLAILSPYDEITTKAILERINLKPTYVIANRGKTKPSREPYRILIEVTGWDPLQVVTLASSPLDLLSARFFDSRIKVICVKRYQDCSKYSPFLYSENLDDAISSLKRLKIIR | failed
19 | MTPLPPRPGPGARLARPAAAVLLVAAIGALAAFAPGPATRALESLRQSAPAAAAALAAAYVASGPLMIPAPLLHLAAGFALGPVSGSLVAIPASTLGACAAFAAGRWLVRERAARLAARSPALAGVDAALAASGFRVVLLLRLAPLAPFTVLNYLLGATPVPLRAFALASLLGSVPGLILSVYVGSLAADAAALRATVDAGRGGPGALILPAIGTGAILLAISWVLRRALAASAGARPPPA | failed
20 | MQIKELAELTGVSVRTLHHYDKIGLLVPQKDDWNGYRIYSEKDVDKLQQILFFKELDFPLKKIQQILDDPLFDKNVALDMQRHLLIEKKQRIETMLATLDLTIKNEKGEITMTNKEKFTGFDFSSNPYEEEARKLWGDKVVEKANEKVNNMSEKEQLTLKESFDAEFRHLASVRKLTPESEEAQLEIDHFFHYLNDTHGNIYSLEAFASLGEMYVNDERFTKNIDQFGDGLSQFLQEAMTIYAKNK | not failed
21 | MTQKTGALIFDETADRYDIRFDLNDYYGGLHCGDCLEVFVRGKWKPTRMEYGDNWYLVGVRASDLNGLRVRILEHHHHHH | failed
22 | MNEYLQAVLMILLTIVLYYVSKKIQDKYNNPLLNPALIASIAIIIVLLVCGVSYKGYMKGGTWINHVLNATVVCLAYPLYQNKKKIKKYLTIIFTSVLTGVVLNFVLVFTTLKIFGYSKDTIVTLLPRSITAAVGIEVSQELGGTDTITVLFIITTGLIGSILGSMLLRMGGFKSSIARGLTYGNASHAFGTAKALELDIESGAFSSIGMILTAVISSVLIPVLILLFY | failed
23 | MSSKEEILSILEAFASTERMGSFFLDNATADFLFIRPSGNPLDAKGFENMWSSGDLVLESAEITKVHKFELLGSNAAICVFTLGSKFTYKGTQNDDLPTVTSIFKKIDEKWKVAWMQRSSGQSDMTLWNE | not failed
24 | MTAARSAPSPAGAPRPGLRERKKTRTREAIRAATYGLIRQQGYEATTVEQIAERAEVSPSTVLRYFPTREDIVLTDEYDPVMAAELAARPAGEPWSDSLRHVLRKALGLGAGEEAELIRLRTRLLAEVPAVRARMLENMSDTGRMLARAIADRTGLDPDGLEVRIVSMSLVGGLMEVSRYWAEHDHEESLAELVDRALDALENGLPALRESDRESDREGDRGGHREDRREGPRKD | not failed
25 | MIMMESGKLDLDRTKEGVKKYWDYGSKFYDTAPGLGGNEESQIWKKLLSSSIGPDLKNILDVGSGTGIIAMYLAELGYGVTAVDFSEGMMDIARKKALEKGAKIRFMEGDIENLSFEDETFDCVTARYVLWTLPHPEKALKEWVRVVKPGGRIVIIDGKWVTRGLLPRISAMNYHIYRFIKYGKNPFTYDYRKEVSVGLPNPHGVEKKQIMEYVSKAGLTDIVVTDLKIIRDIQRKKLPWYLKYANDHPIFMVRGTVAKKG | failed
26 | MPTLEMPVAAVLDSTVGSSEALPDFTSDRYKDAYSRINAIVIEGEQEAHDNYIAIGTLLPDHVEELKRLAKMEMRHKKGFTACGKNLGVEADMDFAREFFAPLRDNFQTALGQGKTPTCLLIQALLIEAFAISAYHTYIPVSDPFARKITEGVVKDEYTHLNYGEAWLKANLESCREELLEANRENLPLIRRMLDQVAGDAAVLQMDKEDLIEDFLIAYQESLTEIGFNTREITRMAAAALVS | not failed
